Measurements taken from patent US20200268795A1, “INTERFERON-GAMMA ATTENUATES ANTI-TUMOR IMMUNE RESPONSE TO CHECKPOINT BLOCKADE” (The Regents of the University of California, priority 2017, published 2020).

B1: recombinant IFN-γ: Recombinant murine IFN-γ (Peprotech) (protein, UniProt P01580 23-155, looked up)
Interferon gamma: HGTVIESLESLNNYFNSSGIDVEEKSLFLDIWRNWQKDGDMKILQSQIISFYLRLFEVLKDNQAISNNISVIESHLITTFFSNSKAKKDAFMSIAKFEVNNPQVQRQAFNELIRVVHQLLPESSLRKRKRSRC

Columns and labels:
[1] = system: peripheral blood mononuclear cells from a melanoma patient; experiment: Patient PBMC stimulated in vitro with IFN-γ, apoptosis of CD8+ T cells; format: cell-based, human; conditions: different concentrations of IFN-γ; FIG. 5D
Text: It has been shown that T cell homeostasis can be achieved by down-modulation of antigen specific T cell receptor (TCR) signaling (A. M. Gallegos et al., Nature immunology 17, 379-386 (2016)). To investigate whether combination treatment eliminated different T cell clones depended on the strength of TCR binding to cognate cancer epitope, we gated on CD8 subsets and investigated Spas-1hi versus Spas-11o CD8+ T cell clones (FIG. 12C). […] Finally, peripheral blood mononuclear cells from a melanoma patient that received nivolumab immunotherapy were isolated and cultured in vitro with different concentrations of IFN-γ stimulation.
Splenocytes were harvested from TRAMP-C2 bearing C57BL/6j mice on day 50 and T cells were purified by magnetic beads according to the manufacturer's protocol (Miltenyi Biotec Cat 130-095-130). Cells were checked for over 90% purity. Purified T cells were suspend in DMEM (UCSF cell culture core) +10% fetal bovine serum (Lonza Cat 14-501F) +1% penicillin/streptomycin (UCSF cell culture core)+murine 20 IU IL-2 (Peprotech Cat 212-12), and seeded in 96 wells at 2×10^5 cells per well. Recombinant murine IFN-γ (Peprotech Cat 212-12) was added into the wells at indicated concentrations. Cells were cultured for 12-72 hours and analyzed by flow cytometry. […] Cells were harvested and analyzed by flow cytometry 72 hours after incubation.

[2] = system: T cells purified from TRAMP-C2 tumor bearing mice; experiment: In vitro T cell cultures stimulated with recombinant IFN-γ, active Caspase-3; format: cell-based; conditions: 72 hours after IFN-γ stimulation; FIG. 5B
Experimental: We hypothesized that the loss of Spas-1 specific CD8+ T cells may be related to increased IFN-γ signaling. […] To further evaluate the effects of IFN-γ on antigen specific T cells, T cells were purified from spleens of tumor-bearing mice and stimulated with different concentrations of recombinant IFN-γ in vitro (FIG. 5A). 72 hours after the stimulation, the level of active Caspase-3 expression was examined among T cells subsets, including naïvee T cells (CD45+CD8+CD44-CD62L+), antigen specific T cells (CD45+CD8+Spas-1), and effector T cells (CD45+CD8+CD44+CD62L-). Activated effector T cells and antigen specific T cells were more susceptible to IFN-γ induced active Caspase-3 expression compared to naïvee T cells (FIG. 5B; 2297.33±305.84 versus 2281.67±305.89 versus 723±17.54; P<0.001).
Splenocytes were harvested from TRAMP-C2 bearing C57BL/6j mice on day 50 and T cells were purified by magnetic beads according to the manufacturer's protocol (Miltenyi Biotec Cat 130-095-130). Cells were checked for over 90% purity. Purified T cells were suspend in DMEM (UCSF cell culture core) +10% fetal bovine serum (Lonza Cat 14-501F) +1% penicillin/streptomycin (UCSF cell culture core)+murine 20 IU IL-2 (Peprotech Cat 212-12), and seeded in 96 wells at 2×10^5 cells per well. Recombinant murine IFN-γ (Peprotech Cat 212-12) was added into the wells at indicated concentrations. Cells were cultured for 12-72 hours and analyzed by flow cytometry. For the patient sample, peripheral blood mononuclear cells (PBMCs) were isolated by Ficoll (Sigma Cat F4375) and PBMCs were seeded in 96 wells at 2×10^5 cells per well supplemented with 20 IU human IL-2 (Peprotech Cat 200-02). Recombinant human IFN-γ (Peprotech Cat 212-12) was added to the wells. Cells were harvested and analyzed by flow cytometry 72 hours after incubation.
The flow cytometry protocols were previously described (Sckisel et al., 2015). […] Flow cytometry was performed on Fortessa X20 Dual, and data analyzed by FlowJo software (TreeStar). […]

Molecule	apoptosis (Annexin V) in CD8+ T cells [1]	active Caspase-3 expression, antigen specific T cells (CD45+CD8+Spas-1) [2]	active Caspase-3 expression, effector T cells (CD45+CD8+CD44+CD62L-) [2]	active Caspase-3 expression, naïve T cells (CD45+CD8+CD44-CD62L+) [2]
IFN-γ: Recombinant human IFN-γ (Peprotech) added to patient PBMCs	gradual increase in apoptosis	–	–	–
B1	–	2281.67±305.89	2297.33±305.84	723±17.54
